# Test results from patent US7871610B2, “Antibodies to Tie1 ectodomain” (Dyax Corp., priority 2003, dated 2011).
# “Also recorded” adds a separate entry of the source.
# B1: E3: human anti-Tie1 antibody from Fab phage library; HC SEQ ID NO:114, LC SEQ ID NO:116 (antibody, V domains shown)
# VH: EVQLLESGGGLVQPGGSLRLSCAASGFTFSMYGMVWVRQAPGKGLEWVSVISPSGGNTGYADSVKGRFTISRDNSKNTLYLQVNSLRAEDTAVYYCARAPRGYSYGYYYWGQGTLVTVSSASTKGPSVFPLAPSSKSTSGG
# VL: DIQMTQSPLSLSASVGDRVTITCRASQGIGHYLAWYQQKPGKVPKLLIYTASTLQSGVPSRFSGSGSGTDFTLTINSLQPEDVATYYCQQFNSYPHTFGQGTRLDIK
# modifications: Synthetically generated peptide
# Key:
# [1] = system: human platelets; assay: Flow cytometry binding to human platelets; details: non-activated human platelets, 2 and 10 μg/ml
# Procedure: To avoid platelet activation, human platelets were isolated from plasma of healthy donors using the platelet GelSep kit (Biocytex, Marseille, France) kit according to the guidelines of the manufacturer. Platelets were activated by the addition of thrombin to a final concentration of 0.8 U/ml. To distinguish activated from non-activated platelets double staining was performed with Tie-1 antibodies/control antibodies and antibody CD42 (total platelets) or CD62 (activated platelets).
# After preparation, platelets were resuspended in buffer 2 of the GelSep kit, 10% heat inactivated human serum (incubation buffer) and incubated for 1 hour. […] Platelets were spun down by centrifugation for 10 min at 611 g. Between incubations platelets were washed twice with Buffer 1 of the GelSep kit. Then, Strepatvidin-R-phycoerythrin together with anti-CD42-PercP or anti-CD62-PercP were incubated for 30 minutes at room temperature in incubation buffer After the last incubation and washing detection of bound antibodies was performed by means of flow cytometry on a FACSscan and Epics Altra (Becton Dickinson, Oxnard, Coulter) and results analyzed. Cells were gated on SSC and anti-CD42-PercP for the total platelets in case non-activated platelets were used and on SSC and anti-CD62-PercP for the activated platelets.
# [2] = target: T1, recombinant human Tie1-Fc (Homo sapiens, UniProt P35590); assay: ELISA on recombinant human Tie-1-Fc; format: binding; details: soluble Fab 5 or 1 μg per 100 μl; 500 or 50 ng antigen per well
# T1 construct: selected against the Tie1 extracellular domain fused to human Fc or to a histidine purification tag
# T1 sequence (P35590 22-759 limits assumed): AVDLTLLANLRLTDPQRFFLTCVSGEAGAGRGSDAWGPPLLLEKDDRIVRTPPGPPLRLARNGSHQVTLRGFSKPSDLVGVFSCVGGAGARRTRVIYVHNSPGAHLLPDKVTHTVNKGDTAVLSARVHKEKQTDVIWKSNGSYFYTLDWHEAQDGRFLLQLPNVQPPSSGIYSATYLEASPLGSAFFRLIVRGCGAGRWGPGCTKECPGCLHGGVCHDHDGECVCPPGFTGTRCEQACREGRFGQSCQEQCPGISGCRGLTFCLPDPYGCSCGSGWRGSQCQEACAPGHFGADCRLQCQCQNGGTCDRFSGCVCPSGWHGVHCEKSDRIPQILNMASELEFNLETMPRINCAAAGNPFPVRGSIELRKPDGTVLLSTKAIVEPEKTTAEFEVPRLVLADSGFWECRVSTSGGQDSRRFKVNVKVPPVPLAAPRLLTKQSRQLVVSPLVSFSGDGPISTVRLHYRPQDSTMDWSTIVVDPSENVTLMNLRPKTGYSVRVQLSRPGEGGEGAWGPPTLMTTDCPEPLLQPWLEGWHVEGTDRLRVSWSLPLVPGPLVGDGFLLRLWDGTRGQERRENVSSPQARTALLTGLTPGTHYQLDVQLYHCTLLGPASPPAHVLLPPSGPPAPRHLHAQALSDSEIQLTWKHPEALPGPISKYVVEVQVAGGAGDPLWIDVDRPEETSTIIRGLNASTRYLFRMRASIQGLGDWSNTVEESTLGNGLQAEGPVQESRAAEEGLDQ
# Procedure: To evaluate if the conversion of any of the somatic mutations in the framework of E3 back to germline residues had any effect on binding activity the soluble Fabs were produced. The soluble expression vector containing the parental E3 Fab and the germlined E3 Fab construct were grown overnight at 30° C. in 2×TY broth containing 100 μg/ml ampicillin and 2% glucose and use 4 ml of this overnight culture to inoculate 400 ml of 2×TY broth containing 100 μg/ml ampicillin and 0.1% glucose. Cells were grow at 37° C. until an OD600 of 0.8-1.0, 1 mM IPTG was added and the culture was maintained at 30° C. for 4 hours. The cultures were spun down at 4,000 rpm for 15 min at 4° C. […] Dialyze against PBS using dialysis cassettes (SLIDE-A-LYSER™ Dialysis Cassettes, MWCO 10,000, Pierce, cat. no. 66380) and determine the protein concentration from the absorbance at 280 nm assuming that a 1 mg/ml solution has an absorbance of 0.86. The quality of the preparations can be analyzed by reducing and non-reducing SDS-PAGE.
# Wells of an IMMULON™ 2 HB plate coated overnight with 500 ng or 50 ng of purified recombinant human Tie-1-Fc target antigen per 100 microliters 0.1 M sodium bicarbonate buffer, pH 8.5. […] After washing the wells seven times 100 microliters TMB-H2O2 solution was added to each well and the plate read at 630 nm in an ELISA. […]
molecule,measurement,setting,value
B1,binding to total platelets (CD42),[1],Only a background number; also recorded: no significant binding to total platelets
same,binding to recombinant human Tie-1-Fc in ELISA,[2],bound
